From patent US20250064890A1, “PROTEIN COMPOSITIONS FOR THE TREATMENT OF INFLAMMATORY DISEASES” (Unichem Laboratories Limited, priority 2021, published 2025)

Key:
Format in all cases: cell-based, human
[1] = system: oral (buccal) mucosa cells (TR146); assay: Sub(G0/G1) cell population (cell cycle) against 5-FU induced damage; conditions: for % Decrease in Apoptotic cells (with respect to control): Sub G0/G1
Protocol: To determine the effect of test item on cell cycle, oral buccal mucosal cells (TR146) were incubated overnight in 5% CO2 incubator at 37° C. for 24 h. […] After 24 h of treatment, cells were exposed to chemotherapy (5-FU 10 mM) for 24 h or radiotherapy (Gamma radiation (3.5 kGy) using Cobalt 60) for 2 h.
After incubation, cells were harvested by trypsinization and processed for Cell cycle assay. Accordingly, cells were harvested into prelabeled centrifuge tubes and centrifuged at 450 g for 5 min at room temperature (RT, low brake). The supernatants were removed carefully and discarded. 1 ml of 1× phosphate buffer saline (PBS) was added to the pellet and resuspended gently to make homogenous suspension. Cells were centrifuged at 450 g for 5 min, RT (low brake). The supernatant was carefully removed leaving behind approx. 100 μl of PBS. Cells were resuspended gently yet thoroughly in residual PBS. Ice-cold 70% ethanol (100 μl) was added drop-wise into cells in each tube while vortexing at low speed (fixation step). Cells stored at 4° C. for 24 h were centrifuged at 450 g for 5 min, RT (low brake). The supernatant was carefully removed without touching the pellet and discarded. 1 ml of 1×PBS was added into pellet and resuspended gently. Cells were incubated for 1 minute at RT. Cells were centrifuged at 450 g for 5 min, RT (low brake). The supernatant was removed carefully without touching the pellet, leaving behind approx. 20-50 μl of PBS. 200 μl of cell cycle reagent was added into each tube. Cells were resuspended gently and mixed. Cells were incubated for 30 min at RT in the dark. The stained samples were transferred into 96-well plates and acquired on flow cytometer (Guava technologies). Percentage of cells in Sub (G0/G1) phase were determined based on the concept that cell cycle reagent contains PI stain, which stains DNA of cells in different phases of cell cycle; Sub (G0/G1), G1, S, G2 and M. Cells in Sub (G0/G1) phase correspond to apoptotic cells. Percent inhibition in apoptotic cells is determined by the formula:
=[(% Sub(G0/G1) cells in 5-FU/radiation alone)−(% Sub(G0/G1) cells in TI+5-FU/radiation)/% Sub(G0/G1) cells in 5-FU/radiation alone]*100

NF-kB = assay: Multiplex analysis, chemotherapy (5-FU), TR146 cell lysates
Protocol: (§1) Oral buccal mucosal cells (TR146) cells were incubated overnight at 37° C. in 5% CO2 incubator. […] The cells were then stimulated with 5-FU (10 mM) for another 24h for chemotherapy and with gamma radiation (3.5 kGy) using Cobalt 60 for radiotherapy. After 24 h, cell culture supernatants were collected from each well and stored at −20° C. till multiplex analysis. For NF-kB estimations, cell lysates were prepared. Levels of biomarkers were estimated using Magpix® multiplex machine. The cells treated with Amifostine (along with 5-FU or radiation) were considered as positive control (PC). Untreated cells (5-FU or radiation alone treated) were used as negative control (NC).
(§2) The percent modulation in each sample was determined as follows:
(§3) [{Concentration of biomarkers (pg/ml) in Control cells (5-FU or radiation alone treated)−Concentration of biomarkers (pg/ml) in SEQ ID NO: 2+5-FU or radiation treated cells)}/Concentration of biomarkers (pg/ml) in Control cells (5-FU or radiation alone treated)]*100

CCL-2 = assay: Multiplex analysis, radiotherapy, TR146
Protocol: as §1, §2, §3

IL-1β = assay: Multiplex analysis, radiotherapy, TR146
Protocol: as §1, §2, §3

IL-6 = assay: Multiplex analysis, radiotherapy, TR146
Protocol: as §1, §2, §3

MMP-3 = assay: Multiplex analysis, radiotherapy, TR146
Protocol: as §1, §2, §3

MMP-8 = assay: Multiplex analysis, radiotherapy, TR146
Protocol: as §1, §2, §3

RAGE = assay: Multiplex analysis, radiotherapy, TR146
Protocol: as §1, §2, §3

TNF-α = assay: Multiplex analysis, radiotherapy, TR146
Protocol: as §1, §2, §3

VEGF = assay: Multiplex analysis, radiotherapy, TR146
Protocol: as §1, §2, §3

[2] = 0.01 μg/ml + Radiation (3.5 kGy)
[3] = 0.1 μg/ml + Radiation (3.5 kGy)

B1: SEQ ID NO 2: recombinant lectin, variant of the S. rolfsii lectin amino acid sequence (reported as Rec-2 in WO 2010/095143) (protein)
chain: TYKITVRVYQTNPDAFFHPVEKTVWKYANGGTWTITDDQHVLTMGGSGTSGTLRFHADNGESFTATFGVHNYKRWCDIVTNLAADETGMVINQQYYSQKNREEARERQLSNYQVKNAKGRNFQIVYTEAEGNDLHANLIIG
- % Apoptotic cells (Sub G0/G1) ([1]; 0.1 μg/ml + 5FU (10 mM)): 11.4%
- % Decrease in Apoptotic cells (with respect to control) ([1]; 0.1 μg/ml + 5FU (10 mM)): 63.1%
- % Apoptotic cells (Sub G0/G1) ([1]; 10 μg/ml + 5FU (10 mM)): 6.8%
- % Decrease in Apoptotic cells (with respect to control) ([1]; 10 μg/ml + 5FU (10 mM)): 78%
- % Apoptotic cells (Sub G0/G1) ([1]; 25 μg/ml + 5FU (10 mM)): 14.2%
- % Decrease in Apoptotic cells (with respect to control) ([1]; 25 μg/ml + 5FU (10 mM)): 54.1%
- % Apoptotic cells (Sub G0/G1) ([1]; 50 μg/ml + 5FU (10 mM)): 40.7%
- % Decrease in Apoptotic cells (with respect to control) ([1]; 50 μg/ml + 5FU (10 mM)): −32.0%
- Percentage Inhibition NF-kB (NF-kB; 0.1 μg/ml + 5-FU (10 mM)): 88.6%
- Percentage Inhibition NF-kB (NF-kB; 10 μg/ml + 5-FU (10 mM)): 98.4%
- Percentage Inhibition NF-kB (NF-kB; 25 μg/ml + 5-FU (10 mM)): 59.7%
- Percentage Inhibition NF-kB (NF-kB; 50 μg/ml + 5-FU (10 mM)): 53%
- Percentage Inhibition NF-kB (NF-kB; 100 μg/ml + 5-FU (10 mM)): 84.3%
- Percentage Inhibition CCL-2 (CCL-2; [2]): 0.1%
- Percentage Inhibition CCL-2 (CCL-2; [3]): 23.1%
- Percentage Inhibition CCL-2 (CCL-2; 1 μg/ml + Radiation (3.5 kGy)): 23.1%
- Percentage Inhibition CCL-2 (CCL-2; 10 μg/ml + Radiation (3.5 kGy)): 23.1%
- Percentage Inhibition CCL-2 (CCL-2; 25 μg/ml + Radiation (3.5 kGy)): 0%
- CCL-2 against radiation induced levels (CCL-2; radiation, in words): downregulation
- Percentage Inhibition IL-1β (IL-1β; [2]): −17.3%
- Percentage Inhibition IL-1β (IL-1β; [3]): −15.1%
- Percentage Inhibition IL-1β (IL-1β; 1 μg/ml + Radiation (3.5 kGy)): −11.5%
- Percentage Inhibition IL-1β (IL-1β; 10 μg/ml + Radiation (3.5 kGy)): −44.8%
- Percentage Inhibition IL-1β (IL-1β; 25 μg/ml + Radiation (3.5 kGy)): −97.1%
- Percentage Inhibition IL-6 (IL-6; [2]): −0.2%
- Percentage Inhibition IL-6 (IL-6; [3]): 3.1%
- Percentage Inhibition IL-6 (IL-6; 1 μg/ml + Radiation (3.5 kGy)): 3.8%
- Percentage Inhibition IL-6 (IL-6; 10 μg/ml + Radiation (3.5 kGy)): 7.7%
- Percentage Inhibition IL-6 (IL-6; 25 μg/ml + Radiation (3.5 kGy)): 5.2%
- Percentage Inhibition MMP-3 (MMP-3; [2]): 42.8%
- Percentage Inhibition MMP-3 (MMP-3; [3]): 51.9%
- Percentage Inhibition MMP-3 (MMP-3; 1 μg/ml + Radiation (3.5 kGy)): 47.4%
- Percentage Inhibition MMP-3 (MMP-3; 10 μg/ml + Radiation (3.5 kGy)): 47.4%
- Percentage Inhibition MMP-3 (MMP-3; 25 μg/ml + Radiation (3.5 kGy)): 28.8%
- MMP-3 against radiation induced levels (MMP-3; radiation, in words): downregulation
- Percentage Inhibition MMP-8 (MMP-8; [2]): 1.8%
- Percentage Inhibition MMP-8 (MMP-8; [3]): 13.9%
- Percentage Inhibition MMP-8 (MMP-8; 1 μg/ml + Radiation (3.5 kGy)): 11%
- Percentage Inhibition MMP-8 (MMP-8; 10 μg/ml + Radiation (3.5 kGy)): 8.5%
- Percentage Inhibition MMP-8 (MMP-8; 25 μg/ml + Radiation (3.5 kGy)): 7.6%
- MMP-8 against radiation induced levels (MMP-8; radiation, in words): downregulation
- Percentage Inhibition RAGE (RAGE; [2]): 38.8%
- Percentage Inhibition RAGE (RAGE; [3]): 42.6%
- Percentage Inhibition RAGE (RAGE; 1 μg/ml + Radiation (3.5 kGy)): 47.6%
- Percentage Inhibition RAGE (RAGE; 10 μg/ml + Radiation (3.5 kGy)): 53.5%
- Percentage Inhibition RAGE (RAGE; 25 μg/ml + Radiation (3.5 kGy)): 39.1%
- RAGE against radiation induced levels (RAGE; radiation, in words): downregulation
- Percentage Inhibition TNF-α (TNF-α; [2]): 43.2%
- Percentage Inhibition TNF-α (TNF-α; [3]): 45.2%
- Percentage Inhibition TNF-α (TNF-α; 1 μg/ml + Radiation (3.5 kGy)): 39.6%
- Percentage Inhibition TNF-α (TNF-α; 10 μg/ml + Radiation (3.5 kGy)): 47.1%
- Percentage Inhibition TNF-α (TNF-α; 25 μg/ml + Radiation (3.5 kGy)): 41%
- TNF-α against radiation induced levels (TNF-α; radiation, in words): downregulation
- Percentage Inhibition VGEF (VEGF; [2]): 0.9%
- Percentage Inhibition VGEF (VEGF; [3]): −8.1%
- Percentage Inhibition VGEF (VEGF; 1 μg/ml + Radiation (3.5 kGy)): 8.4%
- Percentage Inhibition VGEF (VEGF; 10 μg/ml + Radiation (3.5 kGy)): 23.3%
- Percentage Inhibition VGEF (VEGF; 25 μg/ml + Radiation (3.5 kGy)): 29.7%
- VEGF against radiation induced levels (VEGF; radiation, in words): downregulation
